Assay results: patent US7407783B2, “Fructosylamine oxidase” (priority 2002, dated 2008)
“Also recorded” adds a separate entry of the source.

Key:
FAO-Q1 = FAO-Q1 (Fusarium proliferatum, UniProt A0A1L7VP54); assay: Substrate specificity of FAO-Q1 (FAO activity, rate method, H2O2 colorimetry); assay type: biochemical
Experimental: (§1) Titration of enzyme can be performed by a method known in the art (e.g., kinetic method), for example, that described in Example 1 (3). In this method, hydrogen peroxide generated by the reaction of an FAO with a glycated amino acid or peptide is measured on the basis of absorbance (505 nm) of quinone pigment produced in the presence of hydrogen peroxide. The amount (μmole) of hydrogen peroxide generated per minute is calculated on the basis of molar absorptivity (5.16×10^3 M^−1 cm^−1) of quinone pigment and the resultant numerical value is taken as a unit (U) of enzyme activity.
(§2) FAO activity of the crude enzyme solution was determined by the aforementioned rate method. The time-course of generation of hydrogen peroxide in the reaction mixture below was measured by a colorimetric method, and FAO activity was evaluated.
A mixture (total 3 ml) except for the enzyme solution was equilibrated at 30° C. After adding the enzyme solution, the time-course of absorbance at 505 nm was measured. The amount (μmole) of hydrogen peroxide generated per minute was calculated on the basis of molar absorptivity (5.16×10^3 M^−1 cm^−1) of quinone pigment produced, and the resultant numerical value was taken as a unit(U) of enzyme activity. […]
The substrate specificity of the enzymes (FAO-Q1, FAO-Q2) contained in 2 fractions separated in (1), 3) above was determined. […]

FAO-Q2 = assay: Substrate specificity of FAO-Q2 (FAO activity, rate method, H2O2 colorimetry); assay type: biochemical, Fusarium proliferatum; conditions: for Relative activity (%) FAO-Q2: activity of FAO-Q2 on the substrate, FV = 100
Experimental: as §1, §2
(§3) A mixture (total 3 ml) except for the enzyme solution was equilibrated at 30° C. After adding the enzyme solution, the time-course of absorbance at 505 nm was measured. The amount (μmole) of hydrogen peroxide generated per minute was calculated on the basis of molar absorptivity (5.16×10^3 M^−1 cm^−1) of quinone pigment produced, and the resultant numerical value was taken as a unit(U) of enzyme activity. As a result, a strain having FAO was obtained.
The substrate specificity of the enzymes (FAO-Q1, FAO-Q2) contained in 2 fractions separated in (1), 3) above was determined. The FAO activity was measured using the respective two fractions as an enzyme solution according to the method described in Example 1(3). As a substrate, FV, FVH, FVHL, FVL, FVLS and FZL were used.

[1] = tested on: CC(C)[C@H](NCC1(O)OC[C@@H](O)[C@@H](O)[C@@H]1O)C(=O)O; assay: cells, lysate or membranes named; conditions: other: substrate FV or FZL; 30.0 °C
[2] = tested on: O=C(N[C@@H](CCCCNCC1(O)OC[C@@H](O)[C@@H](O)[C@@H]1O)C(=O)O)OCc1ccccc1; assay: cells, lysate or membranes named; conditions: other: substrate FV or FZL; 30.0 °C
Text: Michaelis constant for respective substrates can be determined by measuring the initial reaction rate in the process for determination of titer as described above while keeping the conditions regarding enzyme concentration, pH, temperature, and the like constant and changing only the concentration of substrate.

[3] = Determination of optimum pH of the enzyme reaction; assay type: biochemical, Fusarium proliferatum; conditions: pH 3.5-10.0 tested, at 30° C.
Experimental: Enzyme reaction was conducted under different pH conditions between 3.5 and 10.0 according to the method for determination of activity as described above.
The buffers used were 100 mM acetate buffer at pH range of 3.5-6.0, 100 mM potassium phosphate buffer at pH range of 6.0-8.0, 100 mM Tris-HCl buffer (pH range of 7.0-9.0) and 100 mM glycin-NaOH buffer at pH range of 9.0-10.0.

[4] = Determination of optimum temperature for stability of enzyme; assay type: physicochemical, Fusarium proliferatum; conditions: incubated in 0.1 M Tris-HCl buffer (pH 8.0) at 30-65° C. for 10 minutes
Experimental: Temperature conditions for the enzyme were determined by incubating FAO-Q1 or FAO-Q2 in 0.1 M Tris-HCl buffer (pH 8.0) at a temperature between 30 and 65° C. for 10 minutes, and measuring the activity under normal conditions.

[5] = FAO activity of Resource Q fractions using FV as a substrate; assay type: biochemical, Fusarium proliferatum; conditions: Resource Q fraction
Experimental: as §2, §3
The ammonium sulfate fraction after dialysis was subjected to chromatography under the following conditions.
Measurement of activity was performed in a similar manner to that described in Example 1 (3). FAOs contained in these fractions are herein referred to as “FAO-Q1” and “FAO-Q2”.

| Molecule | Activity of FAO-Q2 on the substrate (in words) (FAO-Q2) | Relative activity (%) FAO-Q2 (FAO-Q2) [%] | Optimum pH for enzyme reaction [3] | Optimum temperature for stability of enzyme [4] | specific activity(U/mg) [5] [U/mg] | also measured |
| --- | --- | --- | --- | --- | --- | --- |
| O=C(N[C@@H](CCCCNCC1(O)OC[C@@H](O)[C@@H](O)[C@@H]1O)C(=O)O)OCc1ccccc1 (stereo partly shown) [FZL] | inactive and not |  |  |  |  | Activity of FAO-Q1 on the substrate (in words) (FAO-Q1): almost equally active; also recorded: almost the same activity; Relative activity (%) FAO-Q1 (FAO-Q1; activity of FAO-Q1 on the substrate, FV = 100): 108% |
| fructosyl valine-leucine-serine (VLS) [FVLS] |  | 3.3 |  |  |  |  |
| fructosyl valine-histidine-leucine (VHL) [FVHL] | active | 0.6 |  |  |  |  |
| FAO-Q1 (Fusarium proliferatum ET1) |  |  |  |  |  | Km [1]: 620 µM; Km [2]: 560 µM |
| FAO-Q1: fructosylamine oxidase from Fusarium proliferatum GL2-1, Resource Q fraction Q1; amino acid sequence SEQ ID NO: 4 (protein, listed as Fusarium proliferatum) MAGPPSSILIVGSGVFGLGTAWALAKRSHFSNTSITVVDDCAGQFPPEDAASVDSSRIVRADYSDPYYAALAAEAQKEWRKQGDHEVGGQGRYSESGFVLCASETPEDFKLKKSGMDYTKESAKNVELIAKETGLPVDKIQKLESTKALQEFLGTDGYPGDWGYLNGNSGWADAGEGMKWLYKQAQATGRIHFVNGKVTELVTEGDRVIGAKLSDSKILKADVVMVAAGAWSGSLVDLRGRTEATGHAVAYMDITPEEQKRLDNFPVVLNLSTGLFLIPPRNNVLKAARHTFGYINPVKINNALPPSPNDKREPFIASQPYTSRNDSSNPLTVEADKDLRRALTDLCPIRGLETRPWKEARICWYSDTRDGEWLIDYHPGWKGLFVATGDSGHGFKFLPNLGEKIVDVMQGQGGKLGEKWRWKEIQNDGVGRETNGVYTGLVTEDGSRGGRPLVLCDELEKGRALIGNTKAKL |  |  | about 7.5 | 30-40 °C | 0.3 | Optimum pH for enzyme reaction ([3]; listed as FAO-O 1): 7.5 |
| FAO-Q2: fructosylamine oxidase from Fusarium proliferatum GL2-1, Resource Q fraction Q2; amino acid sequence SEQ ID NO: 6 (protein, listed as Fusarium proliferatum) MARTVAPLNKDSGILIVGGGTWGCSTALHLARRGYTNVTVLDVNRIPSPISAGHDVNKLSNRLGTSDSKGDDEDSIWKALTYAAAQGWLHDPIFQPFCHNTGAVMAGSTPKSIKQLVEDEIGDDIDQYTPLNTAEDFRRTMPERILTGDFLGWKGFYKPRGSGWVHARKAMKAAFEESQRLGVKFITGSPEGKVESLVFEAGDVKGAKTADGKEHRADRTILSAGASAEFSLDFENQIRPTAWTLGHIQMTAEETKLYKELPPLFNINQGFFMEPDEDLHQLKMCDEHPGYCNWVDKPGSKYPQSIPFAKYQVPIEAERRMKQFLKDIMPQLADRPLVHARICWCADTQDRMFLITYHPRHPSLVIASGDCGTGYKHITSIGKFISDCMEGTLEERFAKFWRWRPEKFTEFWGKDPLDRFGADDKIMDLPKSDAEGWTDIQNDK |  |  | about 7.0 | 30-40 °C | 0.067 | Optimum pH for enzyme reaction ([3]; listed as FAO-O2): 7 |
